Earlier results on 1 substance are cited in paper PMC9090500.

By Kd is commonly meant the concentration at which binding is half-saturated.

In this data set the target is IL18 (Homo sapiens) (UniProt Q14116).
Sequence of IL18 (Homo sapiens) (Q14116 37-193): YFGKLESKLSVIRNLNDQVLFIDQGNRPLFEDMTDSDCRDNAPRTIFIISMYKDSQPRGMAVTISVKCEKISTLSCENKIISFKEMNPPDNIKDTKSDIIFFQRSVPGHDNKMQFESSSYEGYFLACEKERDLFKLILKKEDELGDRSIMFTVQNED

Sequence of IL18BP (O95998 31-194): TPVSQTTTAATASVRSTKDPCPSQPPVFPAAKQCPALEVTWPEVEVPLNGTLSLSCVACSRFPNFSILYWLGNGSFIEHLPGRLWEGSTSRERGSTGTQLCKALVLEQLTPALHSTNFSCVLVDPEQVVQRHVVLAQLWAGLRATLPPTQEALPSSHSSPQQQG

In the case of IL18BP (from UniProt O95998), the Kd was 400 nM.
